According to patent publication US20260242478A1 (published 2026):
Where no end group is shown, it is not given here.

What was measured:
[1] = target: T1, Anti-PSMA Fab (SEQ ID NOs: 19, 20); test: phage binding ELISA; biotinylated PSMA Fab on neutravidin plate, bound phage detected with anti-M13 HRP
T1 construct: Biotinylated and captured on neutravidin coated plates in the phage ELISA; also called 006 PSMA Fab

[2] = target: T1, Anti-PSMA Fab (SEQ ID NOs: 19, 20); test: phage binding ELISA on captured PSMA Fab; competitor PSMA antigen pre-incubated in the well
[3] = target: T2, Anti-PSMA Fab (SEQ ID NOs: 19, 20); test: phage binding ELISA; clonal phage supernatant on biotinylated PSMA Fab captured on neutravidin plates, anti-M13 HRP detection
T2 construct: Biotinylated PSMA Fab captured on neutravidin coated plates in the phage ELISA; also called 006 PSMA Fab

[4] = target: T2, Anti-PSMA Fab (SEQ ID NOs: 19, 20); test: phage binding ELISA on captured PSMA Fab pre-incubated with PSMA antigen as competitor, anti-M13 HRP detection
[5] = target: T3, Anti-PSMA Fab (SEQ ID NOs: 19, 20) (biotinylated (site not stated)); test: phage ELISA; biotinylated PSMA Fab on neutravidin plate, clonal phage supernatant, anti-M13 HRP detection;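 also: wells preincubated with PSMA antigen in blocking buffer or with blocking buffer only before clonal phage were added for a short incubation, then bound phage detected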
T3 construct: also called 006 PSMA Fab

[6] = target: T3, Anti-PSMA Fab (SEQ ID NOs: 19, 20); test: phage ELISA; biotinylated PSMA Fab on neutravidin plate, wells pre-incubated with PSMA antigen as competitor, anti-M13 HRP detection

B1: Phage-1898 (peptide)
peptide: AEKWCFPAWMCERP
modifications: cysteine pairing not given here; also: fused to phage pIII, sequence and linker not given here
notes: Peptide-180 library clone, tested as clonal phage supernatant; not shown: pIII of the bacteriophage to which the peptide is fused
- Anti-PSMA Fab (SEQ ID NOs: 19, 20) signal [1]: 2.03
- Anti-PSMA Fab signal in the presence of PSMA [2]: 0.0803

B2: Phage-1899 (peptide)
peptide: SVKMCTPAWMCSGF
modifications: cysteine pairing not given here; also: fused to phage pIII, sequence and linker not given here
notes: as for B1
- Anti-PSMA Fab (SEQ ID NOs: 19, 20) signal [1]: 2.03
- Anti-PSMA Fab signal in the presence of PSMA [2]: 0.0752

B3: Phage-1900 (peptide)
peptide: VSRLCIPTWMCDYS
modifications: cysteine pairing not given here; also: displayed as fusion to phage pIII
notes: as for B1
- Anti-PSMA Fab (SEQ ID NOs: 19, 20) signal [1]: 2.03
- Anti-PSMA Fab signal in the presence of PSMA [2]: 0.0757

B4: Phage-1901 (peptide)
peptide: TDMWCTPMWMCMGF
modifications: cysteine pairing not given here; also: displayed as fusion to phage pIII
notes: as for B1
- Anti-PSMA Fab (SEQ ID NOs: 19, 20) signal [1]: 2.03
- Anti-PSMA Fab signal in the presence of PSMA [2]: 0.0829

B5: Phage-1902 (peptide)
peptide: LIPWCIPAWMCTSD
modifications: cysteine pairing not given here; also: displayed as fusion to phage pIII
notes: as for B1
- Anti-PSMA Fab (SEQ ID NOs: 19, 20) signal [1]: 2.03
- Anti-PSMA Fab signal in the presence of PSMA [2]: 0.0863

B6: Phage-1903 (peptide)
peptide: IDMRCTPNWMCIGF
modifications: cysteine pairing not given here; also: displayed as fusion to phage pIII
notes: as for B1
- Anti-PSMA Fab (SEQ ID NOs: 19, 20) signal [1]: 2.03
- Anti-PSMA Fab signal in the presence of PSMA [2]: 0.081

B7: Phage-1904 (peptide)
peptide: DVKWCIPAWMCEGF
modifications: cysteine pairing not given here; also: displayed as fusion to phage pIII
notes: as for B1
- Anti-PSMA Fab (SEQ ID NOs: 19, 20) signal [1]: 2.02
- Anti-PSMA Fab signal in the presence of PSMA [2]: 0.105

B8: Phage-1905 (peptide)
peptide: EIRLCTPSWMCMGF
modifications: cysteine pairing not given here; also: displayed as fusion to phage pIII
notes: as for B1
- Anti-PSMA Fab (SEQ ID NOs: 19, 20) signal [1]: 2.02
- Anti-PSMA Fab signal in the presence of PSMA [2]: 0.0792

B9: Phage-1906 (peptide)
peptide: VMKWCIPEWMCYML
- Anti-PSMA Fab (SEQ ID NOs: 19, 20) signal [3]: 2.02
- Anti-PSMA Fab signal in the presence of PSMA [4]: 0.204

B10: Phage-1907 (peptide)
peptide: SAHMCIPPWMCLHT
- Anti-PSMA Fab (SEQ ID NOs: 19, 20) signal [3]: 2.02
- Anti-PSMA Fab signal in the presence of PSMA [4]: 0.133

B11: Phage-1908 (peptide)
peptide: WDNWCIPPWMCIGF
- Anti-PSMA Fab (SEQ ID NOs: 19, 20) signal [3]: 2.02
- Anti-PSMA Fab signal in the presence of PSMA [4]: 0.186

B12: Phage-1909 (peptide)
peptide: MMKWCTPAWMCEEA
- Anti-PSMA Fab (SEQ ID NOs: 19, 20) signal [3]: 2.01
- Anti-PSMA Fab signal in the presence of PSMA [4]: 0.0691

B13: Phage-1910 (peptide)
peptide: GDILCRPEWMCTGF
- Anti-PSMA Fab (SEQ ID NOs: 19, 20) signal [3]: 2.01
- Anti-PSMA Fab signal in the presence of PSMA [4]: 0.111

B14: Phage-1911 (peptide)
peptide: GDPWCIPAWMCMEF
- Anti-PSMA Fab (SEQ ID NOs: 19, 20) signal [3]: 2.01
- Anti-PSMA Fab signal in the presence of PSMA [4]: 0.088

B15: Phage-1912 (peptide)
peptide: MMKWCIPTWMCEME
- Anti-PSMA Fab (SEQ ID NOs: 19, 20) signal [3]: 2
- Anti-PSMA Fab signal in the presence of PSMA [4]: 0.132

B16: Phage-1913 (peptide)
peptide: ESIRCIPLWMCEGF
- Anti-PSMA Fab (SEQ ID NOs: 19, 20) signal [3]: 2
- Anti-PSMA Fab signal in the presence of PSMA [4]: 0.0894

B17: Phage-1914 (peptide)
peptide: VIKWCTPAWMCTAL
- Anti-PSMA Fab (SEQ ID NOs: 19, 20) signal [3]: 2
- Anti-PSMA Fab signal in the presence of PSMA [4]: 0.0733

B18: Phage-1915 (peptide)
peptide: SFAWCIPPWMCEIT
- Anti-PSMA Fab (SEQ ID NOs: 19, 20) signal [3]: 2
- Anti-PSMA Fab signal in the presence of PSMA [4]: 0.127

B19: Phage-1916 (peptide)
peptide: FTIWCIPEWMCLHE
- Anti-PSMA Fab (SEQ ID NOs: 19, 20) signal [3]: 2
- Anti-PSMA Fab signal in the presence of PSMA [4]: 0.0999

B20: Phage-1917 (peptide)
peptide: IEKMCKPAWMCWAD
- Anti-PSMA Fab (SEQ ID NOs: 19, 20) signal [3]: 2
- Anti-PSMA Fab signal in the presence of PSMA [4]: 0.0706

B21: Phage-1918 (peptide)
peptide: EKIWCVPAWMCTWL
- Anti-PSMA Fab (SEQ ID NOs: 19, 20) signal [3]: 1.99
- Anti-PSMA Fab signal in the presence of PSMA [4]: 0.121

B22: Phage-1919 (peptide)
peptide: VSKLCIPMWMCETS
- Anti-PSMA Fab (SEQ ID NOs: 19, 20) signal [3]: 1.99
- Anti-PSMA Fab signal in the presence of PSMA [4]: 0.064

B23: Phage-1920 (peptide)
peptide: GEYWCIPSWMCQLY
- Anti-PSMA Fab (SEQ ID NOs: 19, 20) signal [3]: 1.99
- Anti-PSMA Fab signal in the presence of PSMA [4]: 0.179

B24: Phage-1921 (peptide)
peptide: VDRWCVPVWMCEGL
modifications: cysteine pairing not given here; also: displayed as fusion to phage pIII
notes: Clonal phage of the Peptide-180 library, tested as crude supernatant; not shown: fused to the pIII filament protein of the bacteriophage
- Phage binding ELISA, Anti-PSMA Fab (SEQ ID NOs: 19, 20) signal [5]: 1.99
- Phage binding ELISA, Anti-PSMA Fab signal in the presence of PSMA [6]: 0.124

B25: Phage-1922 (peptide)
peptide: LVNWCIPMWMCEGF
notes: as for B24
- Phage binding ELISA, Anti-PSMA Fab (SEQ ID NOs: 19, 20) signal [5]: 1.99
- Phage binding ELISA, Anti-PSMA Fab signal in the presence of PSMA [6]: 0.107

B26: Phage-1923 (peptide)
peptide: VEKWCIPTWMCELS
notes: as for B24
- Phage binding ELISA, Anti-PSMA Fab (SEQ ID NOs: 19, 20) signal [5]: 1.99
- Phage binding ELISA, Anti-PSMA Fab signal in the presence of PSMA [6]: 0.0767

B27: Phage-1924 (peptide)
peptide: TEKLCIPEWMCFGM
notes: as for B24
- Phage binding ELISA, Anti-PSMA Fab (SEQ ID NOs: 19, 20) signal [5]: 1.99
- Phage binding ELISA, Anti-PSMA Fab signal in the presence of PSMA [6]: 0.0644

B28: Phage-1925 (peptide)
peptide: TEMWCKPAWMCTGF
notes: as for B24
- Phage binding ELISA, Anti-PSMA Fab (SEQ ID NOs: 19, 20) signal [5]: 1.99
- Phage binding ELISA, Anti-PSMA Fab signal in the presence of PSMA [6]: 0.0938

B29: Phage-1926 (peptide)
peptide: FAKWCTPEWMCVGF
notes: as for B24
- Phage binding ELISA, Anti-PSMA Fab (SEQ ID NOs: 19, 20) signal [5]: 1.99
- Phage binding ELISA, Anti-PSMA Fab signal in the presence of PSMA [6]: 0.125

B30: Phage-1927 (peptide)
peptide: WENWCTPAWMCSHM
notes: as for B24
- Phage binding ELISA, Anti-PSMA Fab (SEQ ID NOs: 19, 20) signal [5]: 1.98
- Phage binding ELISA, Anti-PSMA Fab signal in the presence of PSMA [6]: 0.1

B31: Phage-1928 (peptide)
peptide: ELHLCIPRGMCKFR
notes: as for B24
- Phage binding ELISA, Anti-PSMA Fab (SEQ ID NOs: 19, 20) signal [5]: 1.98
- Phage binding ELISA, Anti-PSMA Fab signal in the presence of PSMA [6]: 0.0668

B32: Phage-1929 (peptide)
peptide: AEKWCIPAWMCEAM
notes: as for B24
- Phage binding ELISA, Anti-PSMA Fab (SEQ ID NOs: 19, 20) signal [5]: 1.98
- Phage binding ELISA, Anti-PSMA Fab signal in the presence of PSMA [6]: 0.0668
